Measured values: IntAct's records for PubMed 31515488

B1: Keratin, type I cuticular Ha3-II (Homo sapiens), Q14525 (parent)
chain: MPYNFCLPSLSCRTSCSSRPCVPPSCHGYTLPGACNIPANVSNCNWFCEGSFNGSEKETMQFLNDRLASYLEKVRQLERDNAELENLIRERSQQQEPLLCPSYQSYFKTIEELQQKILCSKSENARLVVQIDNAKLAADDFRTKYQTEQSLRQLVESDINSLRRILDELTLCRSDLEAQMESLKEELLSLKQNHEQEVNTLRCQLGDRLNVEVDAAPAVDLNQVLNETRNQYEALVETNRREVEQWFATQTEELNKQVVSSSEQLQSYQAEIIELRRTVNALEIELQAQHNLRYSLENTLTESEARYSSQLSQVQSLITNVESQLAEIRSDLERQNQEYQVLLDVRARLECEINTYRSLLESEDCKLPSNPCATTNACEKPIGSCVTNPCGPRSRCGPCNTFGY
B2: Ligand of Numb protein X 2 (Homo sapiens), Q8N448 (parent)
chain: MGTTSDEMVSVEQTSSSSLNPLCFECGQQHWTRENHLYNYQNEVDDDLVCHICLQPLLQPLDTPCGHTFCYKCLRNFLQEKDFCPLDRKRLHFKLCKKSSILVHKLLDKLLVLCPFSSVCKDVMQRCDLEAHLKNRCPGASHRRVALERRKTSRTQAEIENENGPTLLDPAGTLSPEADCLGTGAVPVERHLTSASLSTWSEEPGLDNPAFEESAGADTTQQPLSLPEGEITTIEIHRSNPYIQLGISIVGGNETPLINIVIQEVYRDGVIARDGRLLAGDQILQVNNYNISNVSHNYARAVLSQPCNTLHLTVLRERRFGNRAHNHSDSNSPREEIFQVALHKRDSGEQLGIKLVRRTDEPGVFILDLLEGGLAAQDGRLSSNDRVLAINGHDLKYGTPELAAQIIQASGERVNLTIARPGKPQPGNTIREAGNHSSSSQHHTPPPYYSRPSSHKDLTQCVTCQEKHITVKKEPHESLGMTVAGGRGSKSGELPIFVTSVPPHGCLARDGRIKRGDVLLNINGIDLTNLSHSEAVAMLKASAASPAVALKALEVQIVEEATQNAEEQPSTFSENEYDASWSPSWVMWLGLPSTLHSCHDIVLRRSYLGSWGFSIVGGYEENHTNQPFFIKTIVLGTPAYYDGRLKCGDMIVAVNGLSTVGMSHSALVPMLKEQRNKVTLTVICWPGSLV
partner: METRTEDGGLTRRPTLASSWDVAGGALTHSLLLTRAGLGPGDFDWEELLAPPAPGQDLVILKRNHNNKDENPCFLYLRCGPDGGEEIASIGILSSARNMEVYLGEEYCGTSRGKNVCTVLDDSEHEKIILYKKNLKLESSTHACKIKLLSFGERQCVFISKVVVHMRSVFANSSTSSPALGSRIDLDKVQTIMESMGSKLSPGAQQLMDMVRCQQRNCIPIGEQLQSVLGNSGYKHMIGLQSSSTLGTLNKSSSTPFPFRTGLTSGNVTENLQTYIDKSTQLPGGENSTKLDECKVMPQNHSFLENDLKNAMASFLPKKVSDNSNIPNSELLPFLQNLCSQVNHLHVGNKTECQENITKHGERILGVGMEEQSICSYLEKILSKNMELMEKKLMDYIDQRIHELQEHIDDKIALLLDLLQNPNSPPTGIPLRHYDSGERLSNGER
B3: Dystrobrevin beta (Homo sapiens), O60941 (parent)
chain: MIEESGNKRKTMAEKRQLFIEMRAQNFDVIRLSTYRTACKLRFVQKRCNLHLVDIWNMIEAFRDNGLNTLDHTTEISVSRLETVISSIYYQLNKRLPSTHQISVEQSISLLLNFMIAAYDSEGRGKLTVFSVKAMLATMCGGKMLDKLRYVFSQMSDSNGLMIFSKFDQFLKEVLKLPTAVFEGPSFGYTEHSVRTCFPQQRKIMLNMFLDTMMADPPPQCLVWLPLMHRLAHVENVFHPVECSYCRCESMMGFRYRCQQCHNYQLCQNCFWRGHAGGPHSNQHQMKEHSSWKSPAKKLSHAISKSLGCVPTREPPHPVFPEQPEKPLDLAHIVPPRPLTNMNDTMVSHMSSGVPTPTKRLQYSQDIPSHLADEHALIASYVARLQHCARVLDSPSRLDEEHRLIARYAARLAAEAGNVTRPPTDLSFNFDANKQQRQLIAELENKNREILQEIQRLRLEHEQASQPTPEKAQQNPTLLAELRLLRQRKDELEQRMSALQESRRELMVQLEELMKLLKEEEQKQAAQATGSPHTSPTHGGGRPMPMPVRSTSAGSTPTHCPQDSLSGVGGDVQEAFAQGTRRNLRNDLLVAADSITNTMSSLVKELHSAEEGAEEEEEKMQNGKDRG
B4: Methylthioribulose-1-phosphate dehydratase (Homo sapiens), Q96GX9 (parent)
chain: MSGCDAREGDCCSRRCGAQDKEHPRYLIPELCKQFYHLGWVTGTGGGISLKHGDEIYIAPSGVQKERIQPEDMFVCDINEKDISGPSPSKKLKKSQCTPLFMNAYTMRGAGAVIHTHSKAAVMATLLFPGREFKITHQEMIKGIKKCTSGGYYRYDDMLVVPIIENTPEEKDLKDRMAHAMNEYPDSCAVLVRRHGVYVWGETWEKAKTMCECYDYLFDIAVSMKKVGLDPSQLPVGENGIV
partner: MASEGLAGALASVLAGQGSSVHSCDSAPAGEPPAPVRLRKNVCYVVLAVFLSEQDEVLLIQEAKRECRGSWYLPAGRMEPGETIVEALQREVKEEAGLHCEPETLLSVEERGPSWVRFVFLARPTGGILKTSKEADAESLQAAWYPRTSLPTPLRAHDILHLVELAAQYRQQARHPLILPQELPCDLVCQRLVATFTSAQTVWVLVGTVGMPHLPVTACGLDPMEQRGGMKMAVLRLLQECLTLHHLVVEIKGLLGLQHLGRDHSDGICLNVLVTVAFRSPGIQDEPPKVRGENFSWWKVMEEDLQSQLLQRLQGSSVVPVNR
B5: Calcium-binding and coiled-coil domain-containing protein 2 (Homo sapiens), Q13137 (parent)
chain: MEETIKDPPTSAVLLDHCHFSQVIFNSVEKFYIPGGDVTCHYTFTQHFIPRRKDWIGIFRVGWKTTREYYTFMWVTLPIDLNNKSAKQQEVQFKAYYLPKDDEYYQFCYVDEDGVVRGASIPFQFRPENEEDILVVTTQGEVEEIEQHNKELCKENQELKDSCISLQKQNSDMQAELQKKQEELETLQSINKKLELKVKEQKDYWETELLQLKEQNQKMSSENEKMGIRVDQLQAQLSTQEKEMEKLVQGDQDKTEQLEQLKKENDHLFLSLTEQRKDQKKLEQTVEQMKQNETTAMKKQQELMDENFDLSKRLSENEIICNALQRQKERLEGENDLLKRENSRLLSYMGLDFNSLPYQVPTSDEGGARQNPGLAYGNPYSGIQESSSPSPLSIKKCPICKADDICDHTLEQQQMQPLCFNCPICDKIFPATEKQIFEDHVFCHSL
partner: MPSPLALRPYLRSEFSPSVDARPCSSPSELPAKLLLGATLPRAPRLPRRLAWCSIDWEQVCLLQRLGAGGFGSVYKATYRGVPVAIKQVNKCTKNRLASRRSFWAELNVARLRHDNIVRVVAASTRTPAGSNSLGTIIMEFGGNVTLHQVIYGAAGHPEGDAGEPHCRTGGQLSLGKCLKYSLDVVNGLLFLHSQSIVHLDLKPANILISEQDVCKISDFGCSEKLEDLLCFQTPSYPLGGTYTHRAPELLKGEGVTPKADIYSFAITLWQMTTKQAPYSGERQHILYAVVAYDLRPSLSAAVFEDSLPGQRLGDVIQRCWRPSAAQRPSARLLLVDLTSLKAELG
B6: Protein FAM9B (Homo sapiens), Q8IZU0 (parent)
chain: MAAWGKKHAGKDPVRDECEERNRFTETREEDVTDEHGEREPFAETDEHTGANTKKPEDTAEDLTAKRKRMKMDKTCSKTKNKSKHALRKKQLKRQKRDYIHSLKLLNVLEEYITDEQKEEEEEEGEEEELIRIFQEQQKKWQQYRSVRRERLKEMKLLRDQFVKALEDFEDLCDRVFSDEDSELDN
B7: Coiled-coil domain-containing protein 33 (Homo sapiens), Q8N5R6-5 (parent)
chain: MGEPGPPSPPAPKAAPGLIDSFSEMNNYRRAMQKMAEDILSLRRQASILEGENRILRSRLAQQEEEEGQGKASEAQNTVSMKQKLLLSELDMKKLRDRVQHLQNELIRKNDREKELLLLYQAQQPQAALLKQYQGKLQKMKALEETVRHQEKVIEKMERVLEDRLQDRSKPPPLNRQQGKPYTGFPMLSASGLPLGSMGENLPVELYSVLLAENAKLRTELDKNRHQQAPIILQQQALPVDPGELGAGGDLTERLQETHGPGHSECTETLPAQDLLSGTSDKFNLLAKLEHAQSRILSLESQLEDSARRWGREKQDLATRLQEQEKGFRHPSNSIIIEQPVSDPPGVAPRGSGGGAGSHRTPKVTGP
partner: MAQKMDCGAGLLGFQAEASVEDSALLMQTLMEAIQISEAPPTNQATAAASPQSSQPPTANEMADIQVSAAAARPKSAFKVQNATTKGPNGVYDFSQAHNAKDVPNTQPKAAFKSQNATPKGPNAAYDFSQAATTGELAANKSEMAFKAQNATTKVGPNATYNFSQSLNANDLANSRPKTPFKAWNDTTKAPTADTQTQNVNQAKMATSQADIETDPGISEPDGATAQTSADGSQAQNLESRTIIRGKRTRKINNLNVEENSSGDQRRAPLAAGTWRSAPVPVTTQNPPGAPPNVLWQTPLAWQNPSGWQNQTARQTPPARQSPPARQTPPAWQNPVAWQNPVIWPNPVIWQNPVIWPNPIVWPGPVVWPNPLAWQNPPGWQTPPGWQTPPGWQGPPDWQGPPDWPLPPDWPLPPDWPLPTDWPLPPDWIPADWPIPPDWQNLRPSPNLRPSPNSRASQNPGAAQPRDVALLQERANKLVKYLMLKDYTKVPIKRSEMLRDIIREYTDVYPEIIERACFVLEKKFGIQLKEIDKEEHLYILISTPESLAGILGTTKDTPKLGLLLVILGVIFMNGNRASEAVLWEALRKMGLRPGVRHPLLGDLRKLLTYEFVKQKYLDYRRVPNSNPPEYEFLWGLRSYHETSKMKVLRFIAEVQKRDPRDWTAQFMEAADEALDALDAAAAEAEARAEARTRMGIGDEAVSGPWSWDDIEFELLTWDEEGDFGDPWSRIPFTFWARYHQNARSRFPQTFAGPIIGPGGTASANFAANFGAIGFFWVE
B8: Zinc finger protein Aiolos (Homo sapiens), Q9UKT9-1 (parent)
chain: MEDIQTNAELKSTQEQSVPAESAAVLNDYSLTKSHEMENVDSGEGPANEDEDIGDDSMKVKDEYSERDENVLKSEPMGNAEEPEIPYSYSREYNEYENIKLERHVVSFDSSRPTSGKMNCDVCGLSCISFNVLMVHKRSHTGERPFQCNQCGASFTQKGNLLRHIKLHTGEKPFKCHLCNYACQRRDALTGHLRTHSVEKPYKCEFCGRSYKQRSSLEEHKERCRTFLQSTDPGDTASAEARHIKAEMGSERALVLDRLASNVAKRKSSMPQKFIGEKRHCFDVNYNSSYMYEKESELIQTRMMDQAINNAISYLGAEALRPLVQTPPAPTSEMVPVISSMYPIALTRAEMSNGAPQELEKKSIHLPEKSVPSERGLSPNNSGHDSTDTDSNHEERQNHIYQQNHMVLSRARNGMPLLKEVPRSYELLKPPPICPRDSVKVINKEGEVMDVYRCDHCRVLFLDYVMFTIHMGCHGFRDPFECNMCGYRSHDRYEFSSHIARGEHRALLK

Variants of: B1
Settings: with k2c4_human KRT4, P19013

Row | Variant | effect of a mutation on the interaction
1 | Q223R | with no effect

Variants of: B2
Settings: with paat_human PAAT

Row | Variant | effect of a mutation on the interaction
2 | T183I | with no effect
3 | V145I | with no effect

Variants of: B3
Settings: with traf2_human TRAF2, Q12933
Sequence of traf2_human TRAF2, Q12933 (Q12933 whole entry): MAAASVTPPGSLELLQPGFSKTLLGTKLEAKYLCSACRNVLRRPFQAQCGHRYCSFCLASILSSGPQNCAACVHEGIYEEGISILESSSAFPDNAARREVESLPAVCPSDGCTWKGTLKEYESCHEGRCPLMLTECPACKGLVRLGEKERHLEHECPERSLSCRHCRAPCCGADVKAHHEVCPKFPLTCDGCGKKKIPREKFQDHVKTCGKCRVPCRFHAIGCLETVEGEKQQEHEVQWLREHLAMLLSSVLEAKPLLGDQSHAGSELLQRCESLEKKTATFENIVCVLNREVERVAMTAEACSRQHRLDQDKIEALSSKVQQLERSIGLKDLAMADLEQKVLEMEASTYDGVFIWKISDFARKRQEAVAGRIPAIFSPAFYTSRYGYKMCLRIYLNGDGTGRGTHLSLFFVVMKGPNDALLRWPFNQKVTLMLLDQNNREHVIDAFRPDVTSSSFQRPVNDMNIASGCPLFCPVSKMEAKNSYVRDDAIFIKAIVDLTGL

Row | Variant | effect of a mutation on the interaction
4 | S396G | with no effect
5 | R80H | with no effect

Variants of: B3
Settings: with lipa1_human PPFIA1, Q13136
Sequence of lipa1_human PPFIA1, Q13136 (Q13136 whole entry): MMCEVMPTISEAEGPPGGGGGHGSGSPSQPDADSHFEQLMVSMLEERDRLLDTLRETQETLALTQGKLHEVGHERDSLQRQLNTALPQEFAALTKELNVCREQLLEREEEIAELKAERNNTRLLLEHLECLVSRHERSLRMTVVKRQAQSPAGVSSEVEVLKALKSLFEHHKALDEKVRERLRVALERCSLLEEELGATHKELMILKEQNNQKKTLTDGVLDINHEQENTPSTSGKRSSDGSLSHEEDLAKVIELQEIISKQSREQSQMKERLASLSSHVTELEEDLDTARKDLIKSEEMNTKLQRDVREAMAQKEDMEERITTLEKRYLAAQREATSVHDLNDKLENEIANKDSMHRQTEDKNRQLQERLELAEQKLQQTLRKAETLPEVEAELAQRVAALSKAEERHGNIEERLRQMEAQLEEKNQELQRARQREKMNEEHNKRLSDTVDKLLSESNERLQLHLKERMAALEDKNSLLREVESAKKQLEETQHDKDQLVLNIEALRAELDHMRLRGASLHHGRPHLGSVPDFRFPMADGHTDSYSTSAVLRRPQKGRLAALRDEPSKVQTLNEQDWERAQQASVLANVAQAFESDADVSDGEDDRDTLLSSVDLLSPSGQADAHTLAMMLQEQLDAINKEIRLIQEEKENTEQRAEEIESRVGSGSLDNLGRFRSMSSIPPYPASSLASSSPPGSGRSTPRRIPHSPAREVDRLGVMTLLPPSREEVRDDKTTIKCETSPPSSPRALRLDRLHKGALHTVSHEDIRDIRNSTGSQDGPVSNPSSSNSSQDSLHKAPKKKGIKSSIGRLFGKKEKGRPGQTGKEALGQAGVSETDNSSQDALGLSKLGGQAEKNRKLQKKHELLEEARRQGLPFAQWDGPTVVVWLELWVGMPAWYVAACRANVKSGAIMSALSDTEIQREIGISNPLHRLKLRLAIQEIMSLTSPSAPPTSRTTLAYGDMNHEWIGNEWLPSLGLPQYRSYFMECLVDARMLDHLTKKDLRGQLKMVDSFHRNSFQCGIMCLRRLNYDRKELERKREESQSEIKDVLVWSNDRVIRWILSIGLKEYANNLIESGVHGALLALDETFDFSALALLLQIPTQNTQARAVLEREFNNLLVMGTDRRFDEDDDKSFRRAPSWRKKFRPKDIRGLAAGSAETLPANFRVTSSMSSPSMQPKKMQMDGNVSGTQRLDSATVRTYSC

Row | Variant | effect of a mutation on the interaction
6 | S396G | with no effect

Variants of: B3
Settings: with tera_human VCP

Row | Variant | effect of a mutation on the interaction
7 | S396G | with no effect
8 | R80H | with no effect

Variants of: B3
Settings: with dmd_human DMD

Row | Variant | effect of a mutation on the interaction
9 | S396G | with no effect

Variants of: B3
Settings: with cep63_human CEP63, Q96MT8
Sequence of cep63_human CEP63, Q96MT8 (Q96MT8 whole entry): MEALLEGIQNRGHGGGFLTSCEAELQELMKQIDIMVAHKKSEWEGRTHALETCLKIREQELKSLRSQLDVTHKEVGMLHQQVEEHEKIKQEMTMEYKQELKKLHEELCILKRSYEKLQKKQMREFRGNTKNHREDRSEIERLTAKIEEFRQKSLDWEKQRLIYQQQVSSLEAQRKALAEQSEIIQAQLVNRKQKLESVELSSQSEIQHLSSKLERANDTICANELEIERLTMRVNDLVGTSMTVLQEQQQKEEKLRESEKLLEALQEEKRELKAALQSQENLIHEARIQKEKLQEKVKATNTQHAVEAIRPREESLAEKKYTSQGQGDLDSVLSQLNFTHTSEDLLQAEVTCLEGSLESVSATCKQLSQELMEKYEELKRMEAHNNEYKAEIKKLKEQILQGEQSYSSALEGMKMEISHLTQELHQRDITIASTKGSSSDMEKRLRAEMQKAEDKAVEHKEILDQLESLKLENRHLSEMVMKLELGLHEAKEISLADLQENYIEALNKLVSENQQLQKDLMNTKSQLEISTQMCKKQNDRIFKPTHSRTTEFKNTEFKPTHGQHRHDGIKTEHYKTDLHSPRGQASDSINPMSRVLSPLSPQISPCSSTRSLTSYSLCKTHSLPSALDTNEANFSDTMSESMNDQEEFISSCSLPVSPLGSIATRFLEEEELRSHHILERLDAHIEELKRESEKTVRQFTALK

Row | Variant | effect of a mutation on the interaction
10 | R80H | with no effect

Variants of: B3
Settings: with abi2_human ABI2, Q9NYB9
Sequence of abi2_human ABI2, Q9NYB9 (Q9NYB9 whole entry): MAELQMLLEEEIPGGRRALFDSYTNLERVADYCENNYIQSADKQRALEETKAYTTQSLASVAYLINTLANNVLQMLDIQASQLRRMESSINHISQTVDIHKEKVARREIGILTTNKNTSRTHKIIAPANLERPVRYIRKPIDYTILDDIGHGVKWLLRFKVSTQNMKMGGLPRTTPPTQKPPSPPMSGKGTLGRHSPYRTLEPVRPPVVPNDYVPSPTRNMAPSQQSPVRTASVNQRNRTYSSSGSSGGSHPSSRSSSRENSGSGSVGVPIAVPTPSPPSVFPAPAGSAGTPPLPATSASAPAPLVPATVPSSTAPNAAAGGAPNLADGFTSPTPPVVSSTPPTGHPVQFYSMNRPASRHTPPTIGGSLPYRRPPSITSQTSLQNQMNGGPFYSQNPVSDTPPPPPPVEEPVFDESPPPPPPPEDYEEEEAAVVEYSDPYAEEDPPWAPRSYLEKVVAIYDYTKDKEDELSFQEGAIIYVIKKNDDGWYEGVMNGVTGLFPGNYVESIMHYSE

Row | Variant | effect of a mutation on the interaction
11 | R80H | with no effect

Variants of: B4
Settings: with nud18_human NUDT18, Q6ZVK8

Row | Variant | effect of a mutation on the interaction
12 | G111A | with no effect
13 | M181V | with no effect

Variants of: B5
Settings: with mos_human MOS

Row | Variant | effect of a mutation on the interaction
14 | E222K | with no effect

Variants of: B6
Settings: with dapk2_human DAPK2, Q9UIK4
Sequence of dapk2_human DAPK2, Q9UIK4 (Q9UIK4 whole entry, looked up): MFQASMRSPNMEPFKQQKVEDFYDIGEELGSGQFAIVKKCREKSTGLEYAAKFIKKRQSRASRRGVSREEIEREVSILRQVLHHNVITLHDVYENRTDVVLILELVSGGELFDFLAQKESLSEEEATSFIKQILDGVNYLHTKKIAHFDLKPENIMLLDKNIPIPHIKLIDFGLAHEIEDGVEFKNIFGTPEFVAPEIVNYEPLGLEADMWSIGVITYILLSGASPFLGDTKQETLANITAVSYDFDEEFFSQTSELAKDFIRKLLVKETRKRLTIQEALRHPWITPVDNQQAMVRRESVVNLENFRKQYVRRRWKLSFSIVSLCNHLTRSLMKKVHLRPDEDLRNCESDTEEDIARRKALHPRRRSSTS

Row | Variant | effect of a mutation on the interaction
15 | R23H | with no effect

Variants of: B6
Settings: with tr61b_human TRMT61B

Row | Variant | effect of a mutation on the interaction
16 | R23H | with no effect

Variants of: B6
Settings: with pin4_human PIN4, Q9Y237
Sequence of pin4_human PIN4, Q9Y237 (Q9Y237 whole entry): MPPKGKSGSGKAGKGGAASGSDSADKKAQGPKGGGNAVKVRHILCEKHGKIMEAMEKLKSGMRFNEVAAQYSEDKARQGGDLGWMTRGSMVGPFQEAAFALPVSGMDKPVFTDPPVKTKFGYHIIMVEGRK

Row | Variant | effect of a mutation on the interaction
17 | R23H | with no effect

Variants of: B6
Settings: with cc106_human CCDC106, Q9BWC9
Sequence of cc106_human CCDC106, Q9BWC9 (Q9BWC9 whole entry): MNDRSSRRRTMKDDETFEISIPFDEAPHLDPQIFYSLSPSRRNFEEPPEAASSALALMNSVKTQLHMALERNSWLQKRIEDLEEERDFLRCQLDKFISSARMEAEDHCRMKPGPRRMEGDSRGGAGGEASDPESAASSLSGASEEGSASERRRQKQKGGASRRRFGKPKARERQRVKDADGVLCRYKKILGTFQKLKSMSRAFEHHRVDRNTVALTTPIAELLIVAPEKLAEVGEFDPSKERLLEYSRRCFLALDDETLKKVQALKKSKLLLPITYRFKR

Row | Variant | effect of a mutation on the interaction
18 | R23H | with no effect

Variants of: B6
Settings: with eftu_human TUFM

Row | Variant | effect of a mutation on the interaction
19 | R23H | with no effect

Variants of: B6
Settings: with xrcc4_human XRCC4, Q13426
Sequence of xrcc4_human XRCC4, Q13426 (Q13426 whole entry): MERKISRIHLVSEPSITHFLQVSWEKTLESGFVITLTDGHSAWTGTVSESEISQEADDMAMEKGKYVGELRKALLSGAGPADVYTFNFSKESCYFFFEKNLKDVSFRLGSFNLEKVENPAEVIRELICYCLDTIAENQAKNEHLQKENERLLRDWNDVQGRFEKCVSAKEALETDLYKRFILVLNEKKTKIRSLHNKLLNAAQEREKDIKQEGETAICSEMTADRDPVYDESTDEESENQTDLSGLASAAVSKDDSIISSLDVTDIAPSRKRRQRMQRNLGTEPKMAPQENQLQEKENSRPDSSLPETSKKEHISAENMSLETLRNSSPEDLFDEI

Row | Variant | effect of a mutation on the interaction
20 | R23H | with no effect

Variants of: B6
Settings: with daxx_human DAXX

Row | Variant | effect of a mutation on the interaction
21 | R23H | with no effect

Variants of: B7
Settings: with magd1_human MAGED1, Q9Y5V3

Row | Variant | effect of a mutation on the interaction
22 | P203L | with no effect
23 | M25V | with no effect
24 | G196R | with no effect
25 | R30L | with no effect

Variants of: B8
Settings: with aakb2_human PRKAB2, O43741

Row | Variant | effect of a mutation on the interaction
26 | I338M | with no effect

Variants of: B8
Settings: with pfd5_human PFDN5, Q99471
Sequence of pfd5_human PFDN5, Q99471 (Q99471 whole entry): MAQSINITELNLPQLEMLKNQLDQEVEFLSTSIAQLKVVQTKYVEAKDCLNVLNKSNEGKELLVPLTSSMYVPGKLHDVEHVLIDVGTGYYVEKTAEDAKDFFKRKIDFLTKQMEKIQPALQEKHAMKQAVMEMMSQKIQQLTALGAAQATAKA

Row | Variant | effect of a mutation on the interaction
27 | I338M | with no effect

Variants of: B8
Settings: with p85b_human PIK3R2, O00459
Sequence of p85b_human PIK3R2, O00459 (O00459 whole entry): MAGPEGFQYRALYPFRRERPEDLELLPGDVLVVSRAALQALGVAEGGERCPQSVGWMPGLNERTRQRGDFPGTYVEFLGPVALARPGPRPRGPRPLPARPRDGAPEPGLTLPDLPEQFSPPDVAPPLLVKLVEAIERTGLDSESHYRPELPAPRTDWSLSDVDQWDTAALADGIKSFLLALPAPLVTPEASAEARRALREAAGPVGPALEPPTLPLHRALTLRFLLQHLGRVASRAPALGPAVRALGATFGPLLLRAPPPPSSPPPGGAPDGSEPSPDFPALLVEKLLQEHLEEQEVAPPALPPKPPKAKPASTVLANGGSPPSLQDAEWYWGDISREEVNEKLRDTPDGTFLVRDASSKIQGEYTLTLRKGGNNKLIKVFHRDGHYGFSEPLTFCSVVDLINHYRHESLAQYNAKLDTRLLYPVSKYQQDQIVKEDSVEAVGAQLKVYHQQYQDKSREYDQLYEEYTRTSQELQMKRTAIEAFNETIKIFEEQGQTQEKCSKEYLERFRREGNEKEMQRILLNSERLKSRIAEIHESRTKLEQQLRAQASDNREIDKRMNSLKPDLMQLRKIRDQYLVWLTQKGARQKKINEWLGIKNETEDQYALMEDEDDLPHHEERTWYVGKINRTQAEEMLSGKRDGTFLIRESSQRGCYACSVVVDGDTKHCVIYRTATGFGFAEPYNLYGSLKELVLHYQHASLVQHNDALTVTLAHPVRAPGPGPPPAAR

Row | Variant | effect of a mutation on the interaction
28 | I338M | with no effect
